PMC4490337, “Revisiting the intraperoxisomal pathway of mammalian PEX7” (Scientific Reports, 2015)

T1: PEX7 (in vitro synthesized) (human, UniProt O00628 1-323, unlabeled in the native-PAGE analyses; [35S]methionine label in the import/export assays)
T1 sequence (looked up): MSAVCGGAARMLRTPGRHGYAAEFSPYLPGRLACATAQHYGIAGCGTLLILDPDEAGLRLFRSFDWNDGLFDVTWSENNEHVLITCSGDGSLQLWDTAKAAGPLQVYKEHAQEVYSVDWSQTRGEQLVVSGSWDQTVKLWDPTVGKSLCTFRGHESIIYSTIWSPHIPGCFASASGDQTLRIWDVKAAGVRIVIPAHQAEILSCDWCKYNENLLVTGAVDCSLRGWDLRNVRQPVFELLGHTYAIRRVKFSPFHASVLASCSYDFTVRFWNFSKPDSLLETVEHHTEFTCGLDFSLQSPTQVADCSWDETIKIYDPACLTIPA


Columns and labels:
[1] = molecular target: T1, PEX7 (in vitro synthesized); experiment: cell-based or functional assay
[2] = molecular target: T1, PEX7 (in vitro synthesized); experiment: native gel or EMSA; chase of the pre-assembled trimeric ΔC1PEX5L-PEX7-35S-prePHYH complex with excess recombinant prePHYH (100 ng) at 23 °C, aliquots over 8 h; band intensity against time; settings: partners not purified

| amount of 35S-labeled PEX7 exported from peroxisomes in 15 min after pre-incubation with ΔC1PEX5L, against pre-incubation with export-incompetent ΔC1PEX5L(C11A) [1] | half-life of prePHYH in the trimeric complex (with m3) [2] | Binder |
| --- | --- | --- |
| ~2 fold |  | ΔC1PEX5L, recombinant protein comprising amino acid residues 1-324 of the large isoform of human PEX5 (domain or fragment) not shown |
|  | 3.06 h | radiolabeled pre-phytanoyl-CoA hydroxylase (35S-prePHYH) (natural protein, human, UniProt O14832 1-338, looked up, [35S]methionine label, human phytanoyl-CoA hydroxylase, precursor form with the PTS2 (prePHYH); cDNA amplified with primers from the start to the stop codon and cloned into pGEM4 (pGEM4-prePHYH); also called radiolabeled prePHYH; source: in vitro translated (TNT T7 quick coupled kit, rabbit reticulocyte lysate), not purified) MEQLRAAARLQIVLGHLGRPSAGAVVAHPTSGTISSASFHPQQFQYTLDNNVLTLEQRKFYEENGFLVIKNLVPDADIQRFRNEFEKICRKEVKPLGLTVMRDVTISKSEYAPSEKMITKVQDFQEDKELFRYCTLPEILKYVECFTGPNIMAMHTMLINKPPDSGKKTSRHPLHQDLHYFPFRPSDLIVCAWTAMEHISRNNGCLVVLPGTHKGSLKPHDYPKWEGGVNKMFHGIQDYEENKARVHLVMEKGDTVFFHPLLIHGSGQNKTQGFRKAISCHFASADCHYIDVKGTSQENIEKEVVGIAHKFFGAENSVNLKDIWMFRARLVKGERTNL |
